The record followed here is patent US20060014712A1 (CeMines, Inc., published 2006).

Holding throughout (assay): cell-based or functional assay
Experiment [1] has as its target T1, MITF (Homo sapiens (Human), UniProt O75030-9).
For experiment [2], the target named is T2, SOX10 (Homo sapiens (Human), UniProt P56693).
For experiment [3], the target named is T3, STAT3 (Homo sapiens (Human), UniProt P40763).
The target in experiment [4] is T2, SOX10. This is another data set of the same source.
The target in experiment [5] is T1, MITF. This is another data set of the same source.
Experiment [6] addresses T3, STAT3. This is another data set of the same source.

Read-outs that look alike come from different tables or passages of the source.

B1: MITF-int1M (peptide)
peptide: TTGGSSPQGLEAKRPKKRKVRRRFNINDRIKELGTLIPKSNDPDMRWN
Take B1: the “Apoptosis 7 d/% in SK-MEL-28” value with MITF [1] is 20%.

B2: SOX10-int1M (peptide)
peptide: TTGGSSPQGLEAKRPKKRKVRRRVKRPMNAFMVWAQAARRKLADQY
On to B2, for which the “Apoptosis 7 d/% in SK-MEL-28” value with SOX10 [2] is 32%.

B3: STAT3-int1M (peptide)
peptide: TTGGSSPQGLEAKRPKKRKVRRRKMQQLEQMLTALDQMRRSIVSELAGLLS
Take B3: the “Apoptosis 7 d/% in SK-MEL-28” value with STAT3 [3] was 12%.

B4: Scr-int1M (peptide)
peptide: TTGGSSPQGLEAKRPKKRKVRRRQLMLEPYALDMSRIRVLSESLGLATQSG
As to B4, the “Apoptosis 7 d/% in SK-MEL-28” value in the experiment with MITF [1], with SOX10 [2] and with STAT3 [3] was 0% throughout.

B5: SOX10-int1 (peptide)
peptide: RPKKRKVRRRVKRPMNAFMVWAQAARRKLADQY
For the molecule B5, in the experiment with SOX10 [4], the “Apoptosis 7 d/% in SK-MEL-28” value worked out at 55%.

B6: Scr-int1 (peptide)
peptide: RPKKRKVRRRQLMLEPYALDMSRIRVLSESLGLATQSG
B6: the “Apoptosis 7 d/% in SK-MEL-28” value in the experiment with MITF [5], in the experiment with SOX10 [4] and with STAT3 [6] was 0% throughout.
